From publication PMC4672576, “Beninese children with cerebral malaria do not develop humoral immunity against the IT4-VAR19-DC8 PfEMP1 variant linked to EPCR and brain endothelial binding” (Malaria Journal, 2015)

B1: VAR19-CIDRα1.1 (domain or fragment)
chain: SVECFHSWAKNLLIDTIRWEHQLKNCINNTNVTDCTSKCIKNCECYEKWIKEKEKEWPQVKGVLKKKDETSHNYYDKLKDVFDRFLFEVKGALDQDEKGKWDQFTKDLEKKFGPSVESAGTANSQDAIELLLDHLNDNATTCKDNNSLAVENCPKTKINP
notes: PfEMP1 IT4-VAR19, CIDRα1.1 domain, residues S580-P739, amplified from IT4 genomic DNA
B2: Recombinant soluble EPCR with a 6x His tag (EPCRH) (receptor, human, UniProt Q9UNN8 18-210, looked up)
chain: SQDASDGLQRLHMLQISYFRDPYHVWYQGNASLGGHLTHVLEGPDTNTTIIQLQPLQEPESWARTQSGLQSYLLQFHGLVRLVHQERTLAFPLTIRCFLGCELPPEGSRAHVFFEVAVNGSSFVSFRPERALWQADTQVTSGVVTFTLQQLNAYNRTRYELREFLEDTCVQYVQKHISAENTKGSQTSRSYTS
notes: Endothelial protein C receptor, human, extracellular region residues S18-S210, amplified from a human lung endothelium cDNA library; glycosylated (migrates at about 40 kDa); also called recombinant EPCR; not shown: His6, C-terminal, kept

Experiments:
[1] = target: B2; experiment: SPR; EPCRH immobilised on a CM5 chip by amine coupling (1324 RU); IT4-VAR19 proteins injected 180 s, dissociation 400 s; HBS-EP buffer, 25 °C; Biacore X100; global 1:1 Langmuir fit; conditions: both partners purified
[2] = target: T1, VAR19-NTS-DBLγ6 (N-terminal region of IT4-VAR19 comprising the full-length DC8 cassette) (Plasmodium falciparum (IT4 strain), UniProt A3R6S3 2-1713); experiment: as above; conditions: both partners purified
T1 construct: PfEMP1 IT4-VAR19, Plasmodium falciparum IT4 (FCR3) strain, residues G2-P1713 (NTS, DBLα2, CIDRα1.1, DBLβ12, DBLγ6); synthetic codon-optimised gene; also called NTS-DBLɣ6; IT4-VAR19-DC8 cassette; not shown: His6, C-terminal, kept

Binder | Kd [1] | koff [1] | kon [1] | Kd [2] | koff [2] | kon [2]
B1 | 340 nM | 0.012 s⁻¹ | 35000 M⁻¹ s⁻¹ |  |  | 
B2 |  |  |  | 52 nM | 0.0011 s⁻¹ | 22000 M⁻¹ s⁻¹
